In patent US20120231024A1 (UNIVERSIT TSKLINIKUM FREIBURG, published 2012) one finds EC50 data, which are given here for one molecule.

For the experiment, the target named is T1, prostate specific membrane antigen (PSMA), native, on the cell surface (human, UniProt Q04609 1-750).
T1 construct: whole, on cells; also called cell-surface PSMA; native PSMA
Put plainly: flow cytometry saturation curve on LNCaP cells; concentration at 50% saturation of PSMA sites. In general terms: Flow cytometry measures light scatter and fluorescence of single cells or particles in a stream.

What is called EC50 is the concentration at which the effect is half-maximal.

T1 sequence (Q04609 whole entry): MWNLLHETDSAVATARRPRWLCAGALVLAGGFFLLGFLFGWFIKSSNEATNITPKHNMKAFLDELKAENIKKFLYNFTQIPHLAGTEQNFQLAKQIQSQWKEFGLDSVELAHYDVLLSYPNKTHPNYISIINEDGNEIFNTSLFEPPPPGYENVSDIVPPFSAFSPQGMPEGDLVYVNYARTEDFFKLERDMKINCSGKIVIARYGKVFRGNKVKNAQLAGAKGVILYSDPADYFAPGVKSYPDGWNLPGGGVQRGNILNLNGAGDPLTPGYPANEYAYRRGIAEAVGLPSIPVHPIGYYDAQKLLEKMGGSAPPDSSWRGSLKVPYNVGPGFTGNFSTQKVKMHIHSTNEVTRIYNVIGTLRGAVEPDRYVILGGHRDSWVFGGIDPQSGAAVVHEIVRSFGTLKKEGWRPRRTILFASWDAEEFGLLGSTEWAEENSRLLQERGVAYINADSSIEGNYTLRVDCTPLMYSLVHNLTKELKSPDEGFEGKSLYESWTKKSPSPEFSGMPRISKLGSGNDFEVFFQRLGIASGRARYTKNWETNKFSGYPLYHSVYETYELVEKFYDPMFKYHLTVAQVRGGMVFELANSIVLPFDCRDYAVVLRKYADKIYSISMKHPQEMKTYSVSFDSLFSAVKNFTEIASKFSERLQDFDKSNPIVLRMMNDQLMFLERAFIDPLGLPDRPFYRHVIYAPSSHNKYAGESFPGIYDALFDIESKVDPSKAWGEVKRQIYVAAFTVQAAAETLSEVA
Method: The binding properties of the isolated monoclonal antibodies or an antigen binding portion thereof to the native PSMA were compared by treating LNCAP cells with increasing concentrations of the first step anti-PSMA Ab followed by incubation with the second step PE-labeled antibody. From the resulting saturation curves the antibody concentration reaching 50% saturation of PSMA sites can be read.

B1: scFv A5 (scFv)
scFv: MADVKLVESGGGLVKPGESLKLSCIASGFTFSDYYMYWVRQTPEKRLEWVAIISDGGYYTYYSDIIKGRFTISRDNAKNNLYLQMSSLKSEDTAMYYCTRGFPLLRHGAMDYWGLGTSVTVSSTKTTPKLEEGEFSEARVDIQMTQSPKFMSTSVGDRVSVTCKASQNVDTNVAWYQQKPGQSPKALIYSASYRYSDVPDRFTGSESGTDFTLTISNVQSEDLAEYFCQQYDSYPYTFGGGTKLEIKRADAAA
notes: also called scFv AS [sic]
Consider B1, for which the midpoint of the response, the EC50, lay at 60 nM.
